Consider 2 molecules from patent publication US20110217282, “Novel Toxin-Antitoxin System” (UNIVERSITY OF MEDICINE AND DENTISTRY OF NEW JERSEY, published 2011).

The target of data set [1] is T1, MqsR-YgiT complex (Escherichia coli, UniProt Q46865;Q46864 SEQ:1-98,SEQ:1-131). Description: EMSA; shift from 10 nM; stronger than YgiT alone; MqsR:YgiT 2:1. The note with it: tags: N-terminal His on MqsR; chain copies: 4 MqsR + 2 YgiT inferred; label: 5'-32P. On the technique in general: A gel shift assay detects complexes by their altered migration in electrophoresis.
T1 sequence (Q46865 whole entry, chain 1 of 2): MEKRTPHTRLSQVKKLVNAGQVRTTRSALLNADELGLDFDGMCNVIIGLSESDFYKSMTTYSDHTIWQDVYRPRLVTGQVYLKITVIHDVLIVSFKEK
T1 sequence (Q46864 whole entry, chain 2 of 2): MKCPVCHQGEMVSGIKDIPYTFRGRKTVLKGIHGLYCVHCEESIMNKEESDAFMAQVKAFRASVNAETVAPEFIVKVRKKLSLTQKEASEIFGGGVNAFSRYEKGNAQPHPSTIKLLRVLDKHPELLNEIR

Data set [2] deals with MqsR (Escherichia coli, UniProt Q46865 SEQ:1-98). Description: EMSA; no binding up to 80 nM. The note with it: chain copies: 2 inferred; label: 5'-32P.
Chain of MqsR (Q46865 whole entry): as the sequence (Q46865 whole entry, chain 1 of 2) above
Data set [3] addresses T2, YgiT (Escherichia coli, UniProt Q46864 SEQ:1-131). Description: EMSA; shift at 20 nM and higher, none at 5 nM; 50 mM Tris-HCl pH 7.2, 50 mM KCl, poly(dI-dC), 4 C. The settings on record: tags: C-terminal His; chain copies: 2 inferred; label: 5'-32P.
Data set [4] concerns the target T2, YgiT. Description: EMSA; shift at 10 nM and higher, none at 5 nM; 50 mM Tris-HCl pH 7.2, 50 mM KCl, poly(dI-dC), 4 C. The settings on record: tags: C-terminal His; chain copies: 2 inferred; label: 5'-32P.
In data set [5] the target is T1, MqsR-YgiT complex. Description: EMSA; shift from 5 nM; stronger than YgiT alone; MqsR:YgiT 2:1. The note with it: tags: N-terminal His on MqsR; chain copies: 4 MqsR + 2 YgiT inferred; label: 5'-32P.

T2 sequence (Q46864 whole entry): as the sequence (Q46864 whole entry, chain 2 of 2) above

B1: mqsR-ygiT palindrome 2 (dsDNA)
DNA 1: CCCAATTAACCTTTTAGGTTATAACCC
DNA 2: GGGTTATAACCTAAAAGGTTAATTGGG
Turning to B1, the binding result is recorded as “binds” in data set [1], “no binding” in data set [2] and “binds” in data set [3].

B2: mqsR-ygiT palindrome 1 (dsDNA)
DNA 1: CCCCTAACTAACCTTTTAGGTGCTTTTCCCC
DNA 2: GGGGAAAAGCACCTAAAAGGTTAGTTAGGGG
With B2, the binding result is given as “no binding” in data set [2], “binds” in data set [4] and “binds” in data set [5].
